From patent US7642046B2, “Method for monitoring recruitment of proteins to the intracellular domain of a receptor in intact cells” (priority 2001, dated 2010) come the findings set out here.

What all share (format): cell-based
Assay [1] deals with T1, CD40 mutants (Homo sapiens, UniProt P25942).
T1 construct: expressed in transfected cells; host or cells: 293T
As to the kind of experiment: Recruitment assay in intact cells with CD40 mutants (deletions or point mutations in TRAF binding sites). The note with it: CD40-222 (CD40 1-222) control, 293T cells. The method, then: (§1) The lysates were cleared by centrifugation at 15000 G at 4° C. in a micro-centrifuge, 3 fold serially diluted (with lysis buffer containing 1% bovine serum albumin) and then every diluted sample incubated for 2 hours at room temperature (or overnight) in wells of ELISA microtiter plates coated with a mAb (Ro1) specific to the CD40 extra-cellular domain (Schwabe et al. 1997). For control purposes, instead of the wild type CD40 plasmid, a plasmid encoding a CD40 mutant lacking the entire signaling domain was used for transfection and transient expression (CD401-222, FIG. 1B). Following incubation exhaustive washes were carried out on the microtiter plates to remove any unbound protein [about 10 washing steps with PBS containing 0.05% Tween 20) PBS/Tween)]. To detect bound TRAF1, anti TRAF1 specific antibodies were loaded into the plates, incubated for about 3 hours at room temperature, […] by extensive washes to remove unbound antibody and detecting the bound antibody with an HRP conjugated secondary antibody. All antibodies (except when used as solid phase antibody) were diluted in PBS/Tween containing 1% BSA.
(§2) The recruitment of TRAF to CD40 can be quantitatively measured using the assay described in example 1. For that purpose, the assay conditions were adjusted in such a way that TRAF expression was in significant excess over the expression of CD40. This was the case when the TRAF expression plasmid was used at a two to three fold excess over the CD40 expression plasmid. The CD40 bound TRAF concentration was measured as described in example 1. A reference extract containing CD40/TRAF complexes served as a standard in each assay. This standard extract consisted of a large pool extract from cells that had been co-transfected with the plasmids encoding CD40/TRAF1, CD40/TRAF2, CD40/TRAF3, CD40/TRAF5 and CD40/TRAF6. The extracts were tested for the presence of CD40/TRAF complexes and the complex concentrations in each extract were arbitrarily defined as 1000 U/ml. The extracts were frozen in small aliquots and kept at −80° C. until further use. By comparing unknown samples to these extracts, it was possible to determine the relative CD40-TRAF complex concentrations in arbitrary units. The necessary normalization for sample-to-sample variations in the CD40 expression was calculated with the following formula: […]
(§3) The quantitative version of the TRAF recruitment assay as described in example 3 was used to compare CD40 and various CD40 mutants with respect to their TRAF recruitment behaviour. TRAF 1, 2, 3, 5 and 6 were examined. […] Additional deletion of the TRAF1/2/3/5 binding motif PXQXT254 at amino acid position 250 to 254 reduced the binding of all 5 TRAFs test to background levels (1-254EA in FIG. 3B). […]

Assay [2] addresses T2, CD40 (Homo sapiens, UniProt P25942).
T2 construct: expressed in transfected cells; host or cells: HEK 293T
As to the kind of experiment: Recruitment assay in intact cells: CD40 and TRAF co-expressed in 293T cells, anti-CD40 capture ELISA of lysate. The note with it: for interaction with CD40 when signalosome assembly occurred in an intact cell: co-expressed in 293T cells, versus cell lysate. The method, then: In order monitor TNF receptor associated factor 1 (TRAF1) recruitment to the CD40 receptor, in intact cells, CD40 and TRAF1 encoding plasmids generated as described in example 7) were used to co-transfect the human embryonic kidney 293T cells (HEK293 ATTC CRL-1573 over expressing the T antigen) (DuBridge et al 1987). 2×10^5 cells were seeded at into 3.5 cm dishes grown 16 hours at 37° C. and transfected with 1 μg CD40 expression plasmid and 2 μg of an expression plasmid encoding TRAF by the calcium phosphate method (Kingston et al. 1993). The two expression plasmids, TRAF1 plasmid and CD40 plasmid were used for transfection at a ratio greater than 2:1 respectively in order to saturate all the CD40 molecules produced. Twenty-seven hours after transfection, the cells were detached, washed once with ice cold phosphate buffered saline (PBS) and detergent extracted with
180 μl lysis buffer [phosphate buffered saline (PBS) containing a protease inhibitor cocktail (0.16 mM Pefabloc, 105 IU Aprotinin), 1% Triton X100 and 0.1% Na Azide]. Since CD40 has a tendency for ligand independent signaling when expressed at high levels it was not necessary to activate the receptor with DC40 ligand or mimetic anti CD40 antibodies before lysis. This feature is shared by various members of the TNFR gene family (Boldin et al. 1995, Siegel et al. 2000 and Chan et al. 2000). […]
The recruitment of TRAF to CD40 can be quantitatively measured using the assay described in example 1. […] The CD40 bound TRAF concentration was measured as described in example 1. […] The necessary normalization for sample-to-sample variations in the CD40 expression was calculated with the following formula:
[formula] CD40 concentrations were determined with an ELISA employing a monoclonal antibody (solid phase) and a polyclonal anti CD40 antibody (for detection) both specific for the extracellular domain of the receptor. […]
Background: ELISA stands for enzyme-linked immunosorbent assay.

The target in assay [3] is T3, CD40 mutants (Homo sapiens, UniProt P25942, E235A).
T3 construct: expressed in transfected cells; host or cells: 293T
T3 sequence (P25942 21-245 E235A): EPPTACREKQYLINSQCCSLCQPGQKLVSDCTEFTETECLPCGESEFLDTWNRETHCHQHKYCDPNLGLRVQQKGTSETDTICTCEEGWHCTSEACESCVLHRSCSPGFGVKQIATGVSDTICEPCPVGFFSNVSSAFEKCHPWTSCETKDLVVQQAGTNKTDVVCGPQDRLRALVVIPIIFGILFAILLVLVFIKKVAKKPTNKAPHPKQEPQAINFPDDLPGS
Nature of the assay: Recruitment assay in intact cells with CD40 mutants (deletions or point mutations in TRAF binding sites). The settings on record: E235A plus deletion of PXQXT254 motif. The method, then: as §1, §2, §3

T2 sequence (P25942 21-277): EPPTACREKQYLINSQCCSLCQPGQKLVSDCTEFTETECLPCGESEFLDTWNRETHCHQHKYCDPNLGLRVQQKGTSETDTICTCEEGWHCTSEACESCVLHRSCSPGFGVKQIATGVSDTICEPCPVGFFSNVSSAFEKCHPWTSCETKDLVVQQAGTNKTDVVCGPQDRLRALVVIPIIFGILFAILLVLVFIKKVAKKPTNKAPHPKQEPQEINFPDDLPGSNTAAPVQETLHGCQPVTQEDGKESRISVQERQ
T1 sequence (P25942 21-222, change not shown): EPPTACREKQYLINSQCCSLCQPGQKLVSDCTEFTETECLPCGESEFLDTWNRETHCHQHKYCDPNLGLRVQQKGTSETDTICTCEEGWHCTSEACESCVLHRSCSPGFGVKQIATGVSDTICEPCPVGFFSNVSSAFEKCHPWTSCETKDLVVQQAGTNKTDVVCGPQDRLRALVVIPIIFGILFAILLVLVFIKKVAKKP

B1: TRAF1: TNF receptor associated factor 1, adaptor protein overexpressed in 293T cells from pcDNA3 (protein, UniProt Q13077 1-416, looked up)
chain: MASSSGSSPRPAPDENEFPFGCPPTVCQDPKEPRALCCAGCLSENPRNGEDQICPKCRGEDLQSISPGSRLRTQEKAHPEVAEAGIGCPFAGVGCSFKGSPQSVQEHEVTSQTSHLNLLLGFMKQWKARLGCGLESGPMALEQNLSDLQLQAAVEVAGDLEVDCYRAPCSESQEELALQHFMKEKLLAELEGKLRVFENIVAVLNKEVEASHLALATSIHQSQLDRERILSLEQRVVELQQTLAQKDQALGKLEQSLRLMEEASFDGTFLWKITNVTRRCHESACGRTVSLFSPAFYTAKYGYKLCLRLYLNGDGTGKRTHLSLFIVIMRGEYDALLPWPFRNKVTFMLLDQNNREHAIDAFRPDLSSASFQRPQSETNVASGCPLFFPLSKLQSPKHAYVKDDTMFLKCIVETST
modifications: full-length
notes: TNF receptor associated factor 1, adaptor protein overexpressed in 293T cells from pcDNA3
B1: the “recruitment to signalling-domain-deficient CD40 mutant” value in assay [1] is recorded as “undetectable”. Also, the “dilution of the original extract up to which recruitment to the CD40 receptor can be detected” value in assay [2] (CD40 wt co-expressed with TRAF1 in 293T cells, 3 fold serial dilutions of lysate) is not above 243 fold. The “interaction with CD40 when signalosome assembly occurred in an intact cell” value in assay [2] is listed as “clearly improved sensitivity”.

B2: TRAF2: TNF receptor associated factor 2, human adaptor protein expressed from pcDNA3 (protein, UniProt Q12933 1-501, looked up)
chain: MAAASVTPPGSLELLQPGFSKTLLGTKLEAKYLCSACRNVLRRPFQAQCGHRYCSFCLASILSSGPQNCAACVHEGIYEEGISILESSSAFPDNAARREVESLPAVCPSDGCTWKGTLKEYESCHEGRCPLMLTECPACKGLVRLGEKERHLEHECPERSLSCRHCRAPCCGADVKAHHEVCPKFPLTCDGCGKKKIPREKFQDHVKTCGKCRVPCRFHAIGCLETVEGEKQQEHEVQWLREHLAMLLSSVLEAKPLLGDQSHAGSELLQRCESLEKKTATFENIVCVLNREVERVAMTAEACSRQHRLDQDKIEALSSKVQQLERSIGLKDLAMADLEQKVLEMEASTYDGVFIWKISDFARKRQEAVAGRIPAIFSPAFYTSRYGYKMCLRIYLNGDGTGRGTHLSLFFVVMKGPNDALLRWPFNQKVTLMLLDQNNREHVIDAFRPDVTSSSFQRPVNDMNIASGCPLFCPVSKMEAKNSYVRDDAIFIKAIVDLTGL
modifications: full-length
notes: TNF receptor associated factor 2, human adaptor protein expressed from pcDNA3
B2: the “binding to CD40 mutant 1-254EA” value in assay [3] was “did not bind”. For the same molecule, the “interaction with CD40 when signalosome assembly occurred in an intact cell” value in assay [2] is “clearly improved sensitivity”.
